molecular target: T1, Soluble CTLA-4-Ig (extracellular domain of human CTLA-4 fused to the Fc portion of human IgG1) (human, UniProt P16410 36-161, FITC-conjugated in the FACS binding assays); assay: competitive FACS on transfected cells, FITC-sCTLA-4-Ig with biotin-sCD28-Ig; grade 0-2 of CTLA-4/CD28 ratio vs WT hB7-1
T1 construct: extracellular domain; bought from R&D Systems; also called sCTLA-4-Ig; CTLA-4-Ig Fc; not shown: Fc portion of human IgG1
T1 sequence (P16410 36-161): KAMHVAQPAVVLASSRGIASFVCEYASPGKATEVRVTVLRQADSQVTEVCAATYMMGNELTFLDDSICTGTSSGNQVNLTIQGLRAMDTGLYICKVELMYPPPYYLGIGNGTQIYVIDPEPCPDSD

Binding Score	Binder
2	Round 2 CTLA4BP-5x2-11d (ligand) VIHVTKEVKEVATLSCGHNVSVEELAQTRIHWQKEKKMVLTMMSGDMNIWPEYKNRTIFDITNNLSIVILALRPSDEGTYECVVLKYEKDAFKREHLAEVMLSVKADFPTPSITDFEIPPSNIRRIICSTSGGFPEPHLFWLENGEELNAINTTVSQDPETELYTVSSKLDFNMTTDRSFVCLIKYGHLRVNQTFNWNTPKQEHFPDNLLPSWAITLISANGIFVICCLTYCFAPRCRERKSNETLRRESVRPV
0	Round 2 CTLA4 A-C9-9 (ligand) SGITPKSVTKRVKETVMLSCDYSTSTEELTSLRIYWQKDSKMVLAILPGKVQVWPEYKNRTFPDIINNLSLMILALRLSDRGTYTCVVQKNENGSFRREHLTSVTLSIRADFPVPSITDIGHPAPNVKRIRCSASGGFPEPRLAWMEDGEELNAVNTTVDQDLDTELYSVGSELDFNVTNNHSIVCLIKYGELSVSQIFPWSKPKQEPPIDQLPFWVIIPVSGALVLTAVVLYCLARRHVARWKRTRRNEETVGTERLSPIYLGSAQSSG

More lines, now with the values behind:

Binder	Binding Score
Round 2 CTLA4BP-5x2-10c (ligand) VIHVTKEVKEVATLSCGHNVSVEELAQTRIHWQKEKKMVLTMMSGDMNIWPEYKNRTIFDITNNLSIVILALRPSDEGTYECVVLKYEKDAFKREHLAEVMLSVKADFPTPSITDFEIPPSNIRRIICSTSGGFPEPHLSWLENGEELNAINTTVSQDPETELYTVSSKLDFNMTANHSFVCLIKYGHLRVNQTFNWNTPKQEHFPDNLLPSWAITLISVNGIFVICCLTYCFAPRCRERRNETLRRESVRPV	2
Round 1 CTLA4BP-7 (ligand, also called R1-7; R1 CTLA-4BP-7) VIHVTNEVKEVATLSCGHNVSGEELAQTRIYWQKEKKMVLTMMYGDMNIWPEYKNRTIFDITNNLSIVILALRPSDEGTYECVVLKYEKDAFKREHLAEVMLSVKADFPTPSITDFEIPPSNIRRIICLTSGGFPEPRLAWMKDGEELNAISTTVSQDPGTELYAVSSKLDFNMTTNHSFMCLIKYGHLRVNQTFSWNTPKQEHFPDNLLPSWAITLISVNGIFVICCLTYCFAPRCRERRRNERLRRESVRPV	1

molecular target: T2, Soluble CD28-Ig (extracellular domain of human CD28 fused to the Fc portion of human IgG1) (human, UniProt P10747 19-152, biotin-conjugated (NHS-biotin) in the FACS binding assays); assay: competitive FACS on transfected cells, biotin-sCD28-Ig with FITC-sCTLA-4-Ig; grade 0-2 of CD28/CTLA-4 ratio vs WT hB7-1
T2 construct: extracellular domain; bought from R&D Systems; also called sCD28-Ig; CD28-Ig Fc; not shown: Fc portion of human IgG1

Binding Score	Binder
2	Round 2 CD28BP-8 (ligand) ITPKSVTKRVKETVMLSCDYNTSTEELTSLRIYWQKDSKMVLAILPGKVQVWPEYKNRTITDMNDNPRIVILALRLSDSGTYTCVIQKPVLKGAYKLEHLASVRLMIRADFPVPSITDIGHPAPNVKRIRCSASGGFPEPRLAWMEDGEELNAVNTTVDQDLDTELYSVSSELDSNVTNNHSIVCLIKYGELSVSQIFPWSKPKQEPPIDQLPFWVIIPVSGALVLTAVVLYCLACRHVARWKRTRRNEETVGTERLSPIYLGSAQSSG
0	Round 2 CD28F3-5 (ligand, also called GD28F3-5) SGITPKSVTKRVKETVMLSCDYNTSTEELTSLRIYWQKDSKMVLAILPGKVQVWPEYKNRTITDMNDNPRIVILALRLSDSGTYTCVVQKNENGSFRREHLTSVTLSIRADFPVPSITDIGHPAPNVKRIRCSASGGFPEPRLAWMEDGEELNAVNTTVDQDLDTELYSVSSELDFNVTNNHSIVCLIKYGELSVSQIFPWSKPKQEPPIDQLPFWVIIPVSGALVLTAVVLYCLACRHVARWKRTRRNEETVGTERLSPIYLGSAQSSG
1	Round 2 CD28G1-5 (ligand) SGITPKSVTKRVKETVMLSCDYSTSTEELTSLRIYWQKDSKMVLAILPGKVQVWPEYKNRTFPDIINNLSLMILALRLSDKGTYTCVVQKNENGSFRREHLTSVTLSIRADFPVSSITDIGHPAPNVKRIRCSASGGFPEPRLAWMEDGEELNAVNTTVDQDLDTELYSVSSELDFNVTNNHSIVCLIKYGELSVSQIFPWSKPKQEPPIDQLPFWVIIPVSGALVLTAVVLYCLACRHVARWKRTRRNEETVGTERLSPIYLGSAQSSG
2	Round 2 CD28BP-11 (ligand) SGITPKSVTKRVKETVMLSCDYNASTEELTSLRIYWQKDSKMVLAILPGKVQVWPEYKNRTITDMNDNPRIVILALRLSDKGTYTCVVQKNENGSFRREHLTSVTLSIRADFPVPSITDIGHPAPNVKRIRCSASGGFPEPRLAWMEDGEELNAVNTTVDQDLDTELYSVSSELDFNVTNNHSIVCLIKYGELSVSQIFPWSKPKQEPPIDQLPFWVIIPVSGALVLTAVVLYCLACRHVARWKRTRRNEETVGTERLSPIYLGSAQSSG
1	Round 1 (R1) CD28BP-71 (ligand, also called R1clone71; Clone 71) ITPKSVTKRVKETVMLSCDYNTSTEELTSLRIYWQKDSKMVLAILPGKVQVWPEYKNRTITDMNDNPRIVILALRLSDSGTYTCVIQKPVLKGAYKLEHLASVRLMIRADFPVPTINDLGNPSPNIRRLICSTSGGFPRPHLYWLENGEELNATNTTLSQDPETKLYMISSELDFNMTSNHSFLCLVKYGDLTVSQTFYWQESKPTPSANQHLTWTIIIPVSAFGISVIIAVILTCLTCRNAAIRRQRRENEVEMQSCSQSP

Continued, binder first:

Binder	Binding Score
Round 1 CD28BP-126 (ligand, also called R1clone 126; Clone 126) ITPKSVTKRVKETVMLSCDYSTSTEELTSLRIYWQKDSKMVLAILPGKVQVWPEYKNRTITDMNDNPRIVILALRLSDSGTYTCVIQKPDLKGAYKLEHLTSVRLMIRADFPVPTINDLGNPSPNIRRLICSTSGGFPRPHLYWLENGEELNATNTTVSQDPGTELYMISSELDFNVTNNHSIVCLIKYGELSVSQIFPWSKPKQEPPIDQLPFWVIIPVSGALVLTAVVLYCLACRHVARWKRTRRNEETVGTERLSPIYLGSAQSSG	1
Round 2 CD28A4-5* (ligand) ITPKSVTKRVKETVMLSCDYNTSTEELTSLRIYWQKDSKMVLAILPGKVQVWPEYKNRTITDMNDNPRIVILALRLSDSGTYTCVIQKPVLKGAYKLEHLTSVRLMIRADFPVPTINDLGNPSPNIRRLICSTSGGFPRPHLYWLENGEELNATNTTLSQDPETKLYMISSELDFNVTNNHSIVCLIKYGELSVSQIFPWSKPKQEPPIDQLPFWVIIPVSGALVLTAVVLYCLACRHVARWKRTRRNEETVGTERLSPIYLGSAQSSG	1
Round 2 CD28D10-4 (ligand) SGITPKSVTKRVKETVMLSCDYNTSTEELTSLRIYWQKDSKMVLAILPGKVQVWPEYKNRTITDMNDNPRIVILALRLSDKGTYTCVVQKNENGSFRREHLTSVTLSIRADFPVPSITDIGHPAPNVKRIRCSASGGFPEPRLAWMEDGEELNAVNTTVDQDLDTELYSVSSELDFNVTNNHSIVCLIKYGELSVSQIFPWSKPKQEPPIDQLPFWVIIPVSGALVLTAVVLYCLACRHVARWKRTRRNEETVGTERLSPIYLGSAQSSG	0
Round 2 CD28A8-6 (ligand) SGITPKSVTKRVKETVMPSCDYSTSTEELTSLRIYWQKDSKMVLAILPGKVQVWPEYKNRTITDMNDNPRIVILALRLSDSGTYTCVVQKNENGSFRREHLTSVTLSIRADFPVPSITDIGHPAPNVKRIRCSASGGFPEPRLAWMEDGEELNAVNTTVDQDLDTELYSVSSELDFNVTNNHSIVCLIKYGELSVSQIFPWSKPKQEPPIDQLPFWVIIPVSGALVLTAVVLYCLACRHVARWKRTRRNEETVGTERLSPIYLGSAQSSG	1
Round 2 CD28BP-17 (ligand) SGITPKSVTKRVKETVMLSCDYSTSTEELTSLRIYWQKDSKMVLAILPGKVQVWPEYKNRTFPDIINNLSLMILALRLSDKGTYTCVVQKNENGSFRREHLTSVTLSIRADFPVPSITDIGHPAPNVKRIRCSASGDFPEPRLAWMEDGEELNAVNTTVDQDLDTELYSVSSELDFNVTNNHSIVCLIKYGELSVSQIFPWSKPKQEPPIDQLPFWVIIPVSGALVLTVVVLYCLACRHVARWKRTRRNEETVGTERLSPIYLGSAQSSG	2

From patent US20100261660A1 (published 2010)
